Data taken from patent US20130089497A1 (Genentech, published 2013).
Residue numbers refer to the chain shown, from its start.

T1: human FcRH5 on stably transfected cells (BJAB.huFcRH5, OPM2.huFcRH5) (human, UniProt Q96RD9 16-977)
T1 construct: also called BJAB-FcRH5; OPM2-FcRH5
T1 chain: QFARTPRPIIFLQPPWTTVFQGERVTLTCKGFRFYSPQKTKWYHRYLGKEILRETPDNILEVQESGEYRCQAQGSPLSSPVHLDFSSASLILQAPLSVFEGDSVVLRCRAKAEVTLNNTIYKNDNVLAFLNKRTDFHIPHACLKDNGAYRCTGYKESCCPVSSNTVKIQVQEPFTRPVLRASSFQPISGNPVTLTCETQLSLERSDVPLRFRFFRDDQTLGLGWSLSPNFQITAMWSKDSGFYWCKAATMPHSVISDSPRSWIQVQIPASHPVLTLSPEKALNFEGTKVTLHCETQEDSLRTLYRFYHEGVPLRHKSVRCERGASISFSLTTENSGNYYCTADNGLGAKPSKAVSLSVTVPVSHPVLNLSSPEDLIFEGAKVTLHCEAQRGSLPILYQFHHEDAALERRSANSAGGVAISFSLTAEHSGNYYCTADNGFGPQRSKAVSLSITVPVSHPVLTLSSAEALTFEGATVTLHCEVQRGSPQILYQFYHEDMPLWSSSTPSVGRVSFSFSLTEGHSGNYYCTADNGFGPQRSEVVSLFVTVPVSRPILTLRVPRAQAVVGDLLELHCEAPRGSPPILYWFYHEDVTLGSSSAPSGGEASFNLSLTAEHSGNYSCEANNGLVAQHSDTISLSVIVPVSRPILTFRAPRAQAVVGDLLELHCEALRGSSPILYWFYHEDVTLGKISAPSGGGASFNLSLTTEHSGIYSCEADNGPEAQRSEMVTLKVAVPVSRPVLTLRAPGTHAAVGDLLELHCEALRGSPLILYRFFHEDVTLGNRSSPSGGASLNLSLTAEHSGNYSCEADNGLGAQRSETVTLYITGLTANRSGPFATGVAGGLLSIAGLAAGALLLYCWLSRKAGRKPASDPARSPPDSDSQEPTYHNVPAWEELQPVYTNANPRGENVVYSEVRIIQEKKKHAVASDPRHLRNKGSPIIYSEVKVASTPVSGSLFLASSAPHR

T2: cynomolgus FcRH5 on stably transfected SVT2 cells (cynomologous monkey)
T2 construct: also called cyno FcRH5; cynoFcRH5
T2 chain: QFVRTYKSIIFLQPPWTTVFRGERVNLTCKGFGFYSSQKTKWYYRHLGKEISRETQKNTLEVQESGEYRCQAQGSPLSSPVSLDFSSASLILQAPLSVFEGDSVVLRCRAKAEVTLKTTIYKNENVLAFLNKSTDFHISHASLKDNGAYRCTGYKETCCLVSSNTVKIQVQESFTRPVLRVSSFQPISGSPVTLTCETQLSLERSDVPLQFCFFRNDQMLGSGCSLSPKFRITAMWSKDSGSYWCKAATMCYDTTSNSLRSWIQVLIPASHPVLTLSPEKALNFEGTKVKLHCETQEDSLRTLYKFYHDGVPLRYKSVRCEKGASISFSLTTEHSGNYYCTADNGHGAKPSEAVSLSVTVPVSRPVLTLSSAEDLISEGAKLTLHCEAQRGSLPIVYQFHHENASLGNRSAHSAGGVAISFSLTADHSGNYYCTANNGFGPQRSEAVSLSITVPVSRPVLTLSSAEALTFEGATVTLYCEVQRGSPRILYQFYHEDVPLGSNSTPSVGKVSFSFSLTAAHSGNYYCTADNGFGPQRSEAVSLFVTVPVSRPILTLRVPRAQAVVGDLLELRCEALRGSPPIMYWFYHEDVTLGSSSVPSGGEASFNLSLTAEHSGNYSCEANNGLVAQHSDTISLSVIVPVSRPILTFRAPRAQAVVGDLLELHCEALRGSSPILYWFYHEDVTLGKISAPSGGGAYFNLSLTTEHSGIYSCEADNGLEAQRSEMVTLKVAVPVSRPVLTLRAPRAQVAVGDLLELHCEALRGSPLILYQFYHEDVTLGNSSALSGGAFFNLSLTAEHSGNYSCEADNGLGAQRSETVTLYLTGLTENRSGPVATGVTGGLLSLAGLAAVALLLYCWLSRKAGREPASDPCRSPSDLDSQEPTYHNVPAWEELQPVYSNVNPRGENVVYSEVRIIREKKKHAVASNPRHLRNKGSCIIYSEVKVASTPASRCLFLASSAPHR

B1: humanized anti-FcRH5 antibody 13G9 version 1 (antibody, human IgG1, V domains shown)
VH: EVQLVQSGGGLVQPGGSLRLSCAASGYTFTNYGMNWVRQAPGKGLEWVGWVNTYTGEPTYTDDFKGRFTFSVDTSKSTVYLQMNSLRAEDTAVYYCARRSIPYYYAMDYWGQGTLVTVS
VL: DIQMTQSPSSLSASVGDRVTITCKASQNVGSNVAWYQQKPGKAPKALIYSASYRYSGVPSRFSGSGSGTDFTLTISSLQPEDFATYYCQQYKTWTFGQGTKVEIKR
notes: also called hu13G9.v1; hu13G9 v1
B2: humanized anti-FcRH5 antibody hu13G9.1b (antibody, human IgG1, V domains shown)
VH: B1 VH
VL: B1 VL with Y87F
notes: Full IgG as hu13G9.1a (human IgG1, kappa)

What was measured:
[1] = target: T1, human FcRH5 on stably transfected cells …; assay: Scatchard analysis: 0.5 nM 125I-labeled antibody competed with the unlabeled antibody (50 to 0.02 nM) on OPM2.huFcRH5 cells, 4 h at 4 C; St. Error 0.012
Procedure: (§1) To further determine binding of the FcRH5 murine antibodies and IgG clones, binding of iodinated IgG variants to OPM2 cells expressing human FcRH5 and SVT2 cells expressing cynomologous FcRH5, Scatchard analysis was performed (Table 9A).
(§2) For Scatchard analysis, 0.5 nM I¹²⁵ labeled murine or IgG clone anti-FcRH5 was competed against unlabeled murine or IgG clone anti-FcRH5, respectively, ranging from 50 to 0.02 nM (12 step 1:2 serial dilution) in the presence of a transfected OPM2 line stably expressing human-FcRH5 and a transfected SVT2 line stably expressing cynomologous-FcRH5. After a four hour incubation at 4° C., cells were washed and cell pellet counts were read by a gamma counter (1470 WIZARD Automatic Gamma Counter; Perkin Elmer, Walthem, Mass.). All points were done in triplicate and counted for 10 minutes. The average CPM was used for Kd calculation using the New Ligand (Genentech, South San Francisco, Calif.) program.

[2] = target: T2, cynomolgus FcRH5 on stably transfected …; assay: Scatchard analysis: 0.5 nM 125I-labeled antibody competed with the unlabeled antibody (50 to 0.02 nM) on SVT2.cyFcRH5 cells, 4 h at 4 C; St. Error 0.027
Procedure: as §1, §2

[3] = target: T1, human FcRH5 on stably transfected cells …; assay: Scatchard analysis: 0.5 nM 125I-labeled antibody competed with the unlabeled antibody (50 to 0.02 nM) on OPM2.huFcRH5 cells, 4 h at 4 C; St. Error 0.027
Procedure: as §1, §2

[4] = target: T2, cynomolgus FcRH5 on stably transfected …; assay: Scatchard analysis: 0.5 nM 125I-labeled antibody competed with the unlabeled antibody (50 to 0.02 nM) on SVT2.cyFcRH5 cells (printed SVT2.cyFcRHS), 4 h at 4 C; St. Error 0.012
Procedure: as §1, §2

| Binder | Kd [1] | Kd [2] | Kd [3] | Kd [4] |
| --- | --- | --- | --- | --- |
| B1 | 0.2 nM | 0.56 nM | – | – |
| B2 | – | – | 0.3 nM | 0.53 nM |
